From doi:10.1101/2024.05.21.594841 (bioRxiv, 2024)
Read-outs that look alike come from different tables or passages of the source.

Assays:
Assay in all cases: split reporter
Yos9p [1] = biological target: T1, Yos9p (S. cerevisiae, UniProt Q99220 22-542)
T1 sequence: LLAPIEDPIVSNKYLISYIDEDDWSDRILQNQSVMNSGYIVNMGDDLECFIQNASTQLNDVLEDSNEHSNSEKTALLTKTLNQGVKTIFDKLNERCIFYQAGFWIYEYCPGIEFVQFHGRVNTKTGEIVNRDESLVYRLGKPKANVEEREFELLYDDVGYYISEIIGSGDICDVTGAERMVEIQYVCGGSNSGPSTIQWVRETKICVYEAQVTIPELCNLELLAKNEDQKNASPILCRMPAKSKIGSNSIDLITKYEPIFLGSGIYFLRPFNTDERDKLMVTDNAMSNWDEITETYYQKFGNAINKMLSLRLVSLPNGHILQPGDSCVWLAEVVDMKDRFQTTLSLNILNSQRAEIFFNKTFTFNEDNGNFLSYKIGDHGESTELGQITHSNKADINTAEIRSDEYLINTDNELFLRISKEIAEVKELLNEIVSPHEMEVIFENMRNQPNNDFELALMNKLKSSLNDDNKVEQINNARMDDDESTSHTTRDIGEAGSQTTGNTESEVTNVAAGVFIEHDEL

Cpr5p [2] = biological target: T2, Cpr5p (S. cerevisiae, UniProt P35176 23-225)
Mpd1p = biological target: T3, Mpd1p (S. cerevisiae, UniProt Q12404 22-318)
T3 sequence: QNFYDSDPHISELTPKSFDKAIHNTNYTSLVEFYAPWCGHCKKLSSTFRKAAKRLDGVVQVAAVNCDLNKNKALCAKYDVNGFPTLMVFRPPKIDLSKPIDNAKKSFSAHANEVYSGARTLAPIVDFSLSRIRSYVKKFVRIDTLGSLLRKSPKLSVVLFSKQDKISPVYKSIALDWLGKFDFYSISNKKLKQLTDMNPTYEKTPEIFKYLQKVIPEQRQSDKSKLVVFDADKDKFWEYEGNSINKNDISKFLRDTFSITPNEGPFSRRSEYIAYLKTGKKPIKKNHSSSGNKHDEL

Yos9p [3] = biological target: T1, Yos9p; remark: listed apart in the source
Cpr5p [4] = biological target: T2, Cpr5p; remark: listed apart in the source
Pdi1p = biological target: T4, Pdi1p (S. cerevisiae, UniProt P17967 29-522)
T4 sequence: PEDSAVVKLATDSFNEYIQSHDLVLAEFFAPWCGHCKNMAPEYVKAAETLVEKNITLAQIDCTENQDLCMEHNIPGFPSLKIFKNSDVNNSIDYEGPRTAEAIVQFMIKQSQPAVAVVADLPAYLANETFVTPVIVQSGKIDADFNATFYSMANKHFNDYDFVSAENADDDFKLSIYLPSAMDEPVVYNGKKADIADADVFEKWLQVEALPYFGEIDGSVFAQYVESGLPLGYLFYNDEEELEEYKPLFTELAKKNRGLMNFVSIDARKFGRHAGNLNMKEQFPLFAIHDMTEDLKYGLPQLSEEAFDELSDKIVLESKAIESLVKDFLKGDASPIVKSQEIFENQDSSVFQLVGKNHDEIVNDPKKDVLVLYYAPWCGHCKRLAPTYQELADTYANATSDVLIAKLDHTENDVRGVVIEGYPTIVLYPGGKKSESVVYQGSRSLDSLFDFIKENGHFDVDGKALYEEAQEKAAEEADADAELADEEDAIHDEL

T2 sequence (P35176 23-225): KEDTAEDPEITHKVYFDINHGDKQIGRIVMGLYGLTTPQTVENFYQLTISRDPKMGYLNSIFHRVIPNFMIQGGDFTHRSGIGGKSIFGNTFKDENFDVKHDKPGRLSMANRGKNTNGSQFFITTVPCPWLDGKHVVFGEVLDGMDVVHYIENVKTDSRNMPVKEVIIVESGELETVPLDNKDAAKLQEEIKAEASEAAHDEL

- normalized interacting score (Yos9p [1]): 16%
- normalized interacting score (Cpr5p [2]): 22%
- normalized interacting score (Mpd1p): 21%
- normalized interacting score (Yos9p [3]): 64%
- normalized interacting score (Cpr5p [4]): 59%
- normalized interacting score (Pdi1p): 23%
B1: Kre5p (natural protein)
chain: WTYSLRYGIPESAQVWSILVHLLGDVDNQLLTNLYPLVTGLDDEIDIQENLVALTSNVLRERYDKEDVADLLELYASLYPMGMIQHDISSNAEQDDANSSYFVLNGNRYEKPDDVFYLKSKDLTIQQKVPDVDVIQPYDVVIGTNSEAPILILYGCPTVIDSDFEEFNRNLFMEAMNGEGKFRFIWRSTCSLDGKSVEYPLTHPLEITLQNGSRMSSIPQLKKILYTVPKEILVGADNDDQLHDLEPEELRELDLRVTSLISEFYQYKKDITATLNFTKSIVNNFPLISKQLIKVSSVNKDIITSNEELNSKGFDYNMLGLYINGQNWKITSLTPYNLLTALKTEYQSLLKITNLLQELEPSKCILDSKFLLNKFSQFSLGKLQNLQPIKMDLHTIPGFSESVIYFNDIESDPQYDELVNSVQAFFDKSKFGELPEIKQNWSEIIFVIDFARLEDSEVKEALGGLVRAVNVVSQGYPQRVGLLPFSSDSDKSVVNKIYELKNSTDNLTELKSFLETMLLADGLSANAKHSKHIPVPDVFHLLDELQIDETSIIINGEIYPFRKNAWNYLIAKVIKKDTEFIRKELSNSSPKNKQISVRDLLHYKSANLRHNKYTPNYFADSVYSSVNNTALESVCSERIGYYTKNEEYNLLHTITLVDDFGSIHALKRLRNLLHTSFVGVRIRIIHVGDISDIWYQLRGSLSQKDPIGSINTFIDALKLKKVKSHTYKKSGLNQLGLHKWLPDIPLFELQKGSFIALNGRFIHLDQNEVPETEHFEAIIKREALRTIDSVFALDLLFPGFSQEIINPDLIEMISSILTRLFYQGTHIYNNGIDYTTESSLPRMDLSEFFRPNNLTMFEDGKSASIDLLLILDPLEERTQMILSLVEQFRPLKFVNIQVILMPTLELNIVPIRRIYVDDADIVKSITSEDSRSDPEVDIEMDVPNSFIVDNNYRIKKLLIELHSFSSKTVLSTGNIDGMGGVCLALVDSAGNIIDKTTTMKTFGYGQFHTDKFLKGCYIKSCDSRYTVQSFSTDGHPDFIPSDSLDILSYNPQKIAVKISEEPTHEEEYEEGRNNDTIINIFTILESGPDEEERYMQMILSILSKCPETQKVNFFILDQPFISDTLRKSCEYINSSDEMRGNVIFLNYEWPQWLRPQRFSSRRRDVSRFLFLDVLLPQNISKVLYMSPTEVPLDPFDIFQFQGLKRAPLGLFRMSGDGYWKEGYWEKMLRENNLEFYSTEPAFLVNLERFRELDAGDKYRIHYQRISTDAMSLVNIGQDLVNNLQLEVPIRFLKGSYKKKLVINDECVSEWKKKINKFASSPGDEDVPGESVSSKYQDSDNAAPLHDEL
